Results reported in US20120141463A1.

Molecular target: membrane anchored IgE on transfected 293 cells (human) (UniProt P01854)
Test: cell-based or functional assay

Sequence of membrane anchored IgE on transfected 293 cells (human) (P01854 whole entry): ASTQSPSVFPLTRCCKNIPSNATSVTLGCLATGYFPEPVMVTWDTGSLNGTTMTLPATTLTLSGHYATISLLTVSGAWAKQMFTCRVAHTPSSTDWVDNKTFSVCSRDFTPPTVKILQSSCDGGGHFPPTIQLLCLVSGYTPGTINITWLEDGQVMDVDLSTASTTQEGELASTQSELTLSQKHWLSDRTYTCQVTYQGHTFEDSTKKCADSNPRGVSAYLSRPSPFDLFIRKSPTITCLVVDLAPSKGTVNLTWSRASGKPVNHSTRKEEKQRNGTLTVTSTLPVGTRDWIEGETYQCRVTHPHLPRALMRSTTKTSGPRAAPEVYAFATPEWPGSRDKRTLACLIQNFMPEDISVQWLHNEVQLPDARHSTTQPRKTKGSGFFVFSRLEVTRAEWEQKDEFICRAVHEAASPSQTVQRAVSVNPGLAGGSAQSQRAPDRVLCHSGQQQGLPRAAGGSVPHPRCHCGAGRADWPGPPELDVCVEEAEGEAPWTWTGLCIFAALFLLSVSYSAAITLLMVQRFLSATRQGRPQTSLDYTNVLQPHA

B1: D5 antibody (antibody, V domains shown)
VH: EVQLLESGGGLVQPGGSLRLSCAASGFTFSKYHMVWVRQAPGKGLEWVSSIGPSGGNTYYADSVKGRFTISRDNSKNTLYLQMNSLRAEDTATYYCARALGATFDYWGQGTLVTVSS
VL: DIQMTQSPLSLPVTLGQPASISCKSSQSLVYRDGITYLSWFQQRPGQSPRRLIYKVSNRDSGVPDRFSGSGSDSNFTLKISSVEAEDVGLYFCMQGSHWPFTFGPGTKVDIKR
  ADCC activity (% cytotoxicity, LDH release, PBMC effectors): < 70%
